# Data reported in patent US20190040151A1.
# Assays:
# [1] = molecular target: HER2 on the surface of N87 (NCI-N87) human gastric carcinoma cells (human) (UniProt P04626); assay: cell-based or functional assay
# [2] = molecular target: HER2-ECD (human epidermal growth factor receptor 2-extracellular domain) (human) (UniProt P04626)
Substance,"IC50 (pM), cytotoxicity on N87 cells (WST-1) [1] [pM]",EC50 [2] [nM]
IgG1(trastuzumab)-AL1-PE38KDEL (antibody),498,–
scFv(trastuzumab)-PE38KDEL,–,0.15
